Laboratory results published in patent US20240239881A1.
One block for each binder: values may come before it.

Biological target: Cynomolgus monkey Ang2 C-terminal domain (Lys274-Phe495) (cynomolgus monkey)
Assay: ForteBio BLI, antibody on AHQ sensor, 100 nM antigen, 1:1 model

Sequence of Cynomolgus monkey Ang2 C-terminal domain (Lys274-Phe495) (cynomolgus monkey) (chain, as listed by the source, form in doubt): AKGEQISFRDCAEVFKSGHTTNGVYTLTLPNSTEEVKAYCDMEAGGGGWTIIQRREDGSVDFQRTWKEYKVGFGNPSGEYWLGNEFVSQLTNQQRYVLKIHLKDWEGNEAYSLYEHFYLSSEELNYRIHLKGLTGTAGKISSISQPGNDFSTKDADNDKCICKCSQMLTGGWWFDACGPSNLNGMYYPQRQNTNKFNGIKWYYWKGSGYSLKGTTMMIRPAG

Kd: 88.3 nM
B1: humanized antibody hz81H10.4 (antibody, human IgG1, kappa, V domains shown)
VH: EVQLVESGGGLVKPGGSLRLSCAASGFTFSNYWMNWVRQAPGKGLEWVAEIRLKSNNYATHYAESVKGRFTISRDVSKNTVYLQMNSLKTEDTAVYYCTDTAPFAYWGQGTLVTVSS
VL: DIQMTQSPSSLSASVGDRVTITCKASQDVGTDVAWYQQKPGKAPKLLIYWASTRHTGVPSRFSGSGSGTDFTLTISSLQPEDFATYYCQQYSSYPLTFGGGTKVEIKR

Kd: 44.3 nM
B2: chimeric antibody 81H10 (antibody, human IgG1, kappa, V domains shown)
VH: EVKLEESGGGLVQPGGSMKLSCVASGFTFSNYWMNWVRQSPEKGLEWVAEIRLKSNNYATHYAESVKGRFTISRDVSKSSVYLQMNNLRTEDTGIYYCTDTAPFAYWGQGTLVTVSA
VL: DIVMTQSHKFMSTSVGDRVSITCKASQDVGTDVAWYQQKPGQSPKLLIYWASTRHTGVPDRFTGSGSGTDFTLTISNVQSEDLSDYFCQQYSSYPLTFGGGTKLEIKR
